Measured values from paper PMC10783487 (Nucleic Acids Research, 2023).

Target: the molecule itself
Experiment: crystal structure

B1: Thermoanaerobacter brockii Can2 E341A mutant (TbrCan2^E341A), catalytically inactive (enzyme)
chain: MNEKVLVLIVGTNPLPNYVVGSHLKEKYDKFVLIYSEKNDKINQNSTYDYAKKLKEHLNLNDKCIFLPLSDVSNSEKIINDLREKFPSEDFVEVHLNYTGGTKTMVVHIYNFLKEKFKNNKIKFEGSYLDARDYKLVYDYSEEAISLKDTIKIDINTLLSIHLYEDIHFEFYDTYSYKQKFVDSFDKISQEIEKAIKDDKGEDFVKWLEDPFRKIFKGENKLLEKTAKFKKHIEKLLKDNDSSPIVKFNEKTPQFIWDILNAFPEGKKLNDGQKLWIPDDKITNDNLSSRVKDTVEFLNGKWFEWYVYSQIKSELLDRKLKEGEHFGISLKAQKKDSPYFALDIFLINGYQLIGISLTTSSTRELCKLKGFEVIHRVRQIGGDESKAILITGMDKSKTEDLQKDLAYETGSTQKRFVVFGIDDWADIGSKICEEVFK
Q: With B1 as the protein, how does the “stoichiometry N” value read?
A: 2
